What was measured:
[1] = molecular target: T1, Recombinant Human TNFα/TNFSF1A (human, UniProt P01375 77-233); experiment: SPR (BIACORE)
T1 construct: also called huTNFα
Experimental: The BIACORE assay (Biacore, Inc, Piscataway, N.J.) determines the affinity of antibodies or DVD-Ig with kinetic measurements of on-rate and off-rate constants. Binding of antibodies or DVD-Ig to a target antigen (for example, a purified recombinant target antigen) was determined by surface plasmon resonance-based measurements with a Biacore® 1000 or 3000 instrument (Biacore® AB, Uppsala, Sweden) using running HBS-EP (10 mM HEPES [pH 7.4], 150 mM NaCl, 3 mM EDTA, and 0.005% surfactant P20) at 25° C. All chemicals were obtained from Biacore® AB (Uppsala, Sweden) or otherwise from a different source as described in the text. For example, approximately 5000 RU of goat anti-mouse IgG, (Fcγ), fragment specific polyclonal antibody (Pierce Biotechnology Inc, Rockford, Ill.) diluted in 10 mM sodium acetate (pH 4.5) is directly immobilized across a CM5 research grade biosensor chip using a standard amine coupling kit according to manufacturer's instructions and procedures at 25 μg/ml. Unreacted moieties on the biosensor surface are blocked with ethanolamine. Modified carboxymethyl dextran surface in flowcell 2 and 4 is used as a reaction surface. Unmodified carboxymethyl dextran without goat anti-mouse IgG in flow cell 1 and 3 is used as the reference surface. For kinetic analysis, rate equations derived from the 1:1 Langmuir binding model are fitted simultaneously to association and dissociation phases of all eight injections (using global fit analysis) with the use of Biaevaluation 4.0.1 software. Purified antibodies or DVD-Ig are diluted in HEPES-buffered saline for capture across goat anti-mouse IgG specific reaction surfaces. Antibodies or DVD-Ig to be captured as a ligand (25 μg/ml) are injected over reaction matrices at a flow rate of 5 μl/min. The association and dissociation rate constants, kₒₙ (M⁻¹ s⁻¹) and koff (s⁻¹) are determined under a continuous flow rate of 25 μl/min. Rate constants are derived by making kinetic binding measurements at different antigen concentrations ranging from 10-200 nM. The equilibrium dissociation constant (M) of the reaction between antibodies or DVD-Igs and the target antigen is then calculated from the kinetic rate constants by the following formula: KD=koff/kₒₙ. Binding is recorded as a function of time and kinetic rate constants are calculated.

[2] = molecular target: T1, Recombinant Human TNFα/TNFSF1A; experiment: cell-based or functional assay

T1 sequence (P01375 77-233 limits assumed): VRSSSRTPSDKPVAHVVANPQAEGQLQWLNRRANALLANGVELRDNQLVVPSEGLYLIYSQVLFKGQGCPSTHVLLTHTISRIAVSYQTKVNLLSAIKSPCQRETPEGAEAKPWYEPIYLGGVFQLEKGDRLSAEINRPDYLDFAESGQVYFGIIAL

B1: AB284 (antibody, human IgG1, kappa, V domains shown)
VH: EVQLVQSGTEVKKPGESLKISCKASGFTFDDYAMHWVRQMPGKGLEWVSAITWNSGHIDYADSVEGQFTISRDNSFNTLFLQWSSLKASDTAMYYCAKVSYLSTASSLDYWGQGTMVTVSS
VL: EIVMTQSPATLSVSPGERATLSCRASQGIRNYLAWYQQKPGQAPRLLIYAASTLQSDVPARFSGSGSGTEFTLTISSLQSEDFAVYYCQRYNRAPYTFGQGTRLEIKR
notes: CDR-grafted parent antibody; also called TNF (AB058)
In the case of B1, the Kd [1] is reported as 0.13 nM, the koff [1] is reported as 0.00015 s⁻¹ and the kon [1] is reported as 1.2e+06 M⁻¹ s⁻¹. The “TNFα Neutralization Assay EC50 nM (L929 cells)” value [2] was 0.228 nM.

B2: AB314 (antibody, human IgG1, kappa, V domains shown)
VH: EVQLVESGGGLVQPANSLKLSCAASGFTFDDYAMHWVRQSPKKGLEWVSAITWNSGHIDYADSVEGRFTISRDNAKNTLYLQMDSLRSEDTATYYCAKVSYLSTASSLDYWGQGVLVTVSS
VL: DIRMTQSPASLSASLGETVNIECRASQGIRNYLAWYQQKPGKAPQLLIYAASTLQSGVPSRFSGSGSGTQFSLKINSLQSEDVATYYCQRYNRAPYTFGGGTKLELKR
notes: CDR-grafted parent antibody; also called TNF (AB023)
With B2 the Kd [1] was 0.064 nM, the koff [1] was 7.9e-05 s⁻¹ and the kon [1] was 1.2e+06 M⁻¹ s⁻¹. For the same binder, the “TNFα Neutralization Assay EC50 nM (L929 cells)” value [2] was 0.053 nM.

B3: DVD1727 (bispecific antibody, human IgG1, kappa)
heavy: not shown
light: DVQMTQSPSSLSASVGDRVTITCTSSQNIVHSNGNTYLEWYQQKPGKSPKLLIYKVSNRFSGVPSRFSGSGSGTDFTLTISSLQPEDVATYYCFQVSHVPYTFGQGTKVEIKRTVAAPDIRMTQSPASLSASLGETVNIECRASQGIRNYLAWYQQKPGKAPQLLIYAASTLQSGVPSRFSGSGSGTQFSLKINSLQSEDVATYYCQRYNRAPYTFGGGTKLELKRTVAAPSVFIFPPSDEQLKSGTASVVCLLNNFYPREAKVQWKVDNALQSGNSQESVTEQDSKDSTYSLSSTLTLSKADYEKHKVYACEVTHQGLSSPVTKSFNRGEC
notes: DVD-Ig; also called PGE2 (AB017) / TNF (AB023) DVD-Ig
In the case of B3, the Kd [1] is reported as 5.4 nM, the koff [1] is reported as 0.00012 s⁻¹ and the kon [1] is reported as 22000 M⁻¹ s⁻¹. The “C-terminal VD TNFα Neutralization Assay EC50 nM (L929 cells)” value [2] was 1.17 nM.

From patent US20120258108A1 (AbbVie / Abbott, published 2012)
